Assay results from the supplement of paper PMC10567573.

B1: TSN (parent)
chain: AFVVYLETETLVTREAVTEILGIE
B2: MGC27345 (parent)
chain: KYMPHLCQDSSGEVSCQCQLHPPR

Variants of: B1
Test: protein stability index of a GFP-peptide fusion (GPS, HEK-293T) (PSI 1-6); higher = more stable
Conditions: c terminus: a fixed tail appended
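Note: lentivirally expressed fusions sorted by FACS into six bins by GFP to DsRed ratio, PSI derived from sequencing read proportions per bin multiplied by bin number.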

Protein stability index of substitutions, site by site:
L21: W 2.52, Y 2.1
E24: F 2.03, W 1.53, R 2.27, A 3.43, K 3.34, S 2.53, Q 3.13, D 2.34, G 2.84, V 2.23, C 3.31, I 3.19, L 3.3
G22: K 1.74, F 3.47, V 2.04, S 1.86, R 3.49, Y 3.71, P 2.86, N 2.33, E 2.82, D 3.2, H 3.32, A 3.71
I23: D 1.42, V 3.69, W 1.79, T 1.79, Q 1.69, L 2.26, C 1.7, K 1.55, Y 3.36, E 2.03, N 3.34, F 2.36, A 1.8, H 2.75

Variants of: B2
Test: as above
Conditions: c terminus: a fixed tail appended

Protein stability index, by site and new letter:
H5: W 3.69, E 2.3, C 2.92, R 2.57, Y 1.98, G 1.45, F 1.34, M 2.15, V 2.22, P 2.27, S 1.89, D 1.66, N 1.64, I 1.49, A 1.8, T 2.21, Q 2.6
E13: A 2.3, M 1.89, L 2.07, C 2.14, S 2.26, W 1.03, F 1.71, K 2.21, Y 1.54, D 2.57, H 2.05, R 2.44, Q 1.74, V 1.78, N 1.75, P 2.31, T 2.22, I 1.99
S15: N 2.62, V 2.48, Q 1.96, L 1.72, H 1.64, T 1.41, C 2.28, D 3.99, Y 2.22, E 3.32, F 1.67, R 1.63, I 1.63, W 1.02, K 2.8, P 2.67, G 2.14
K1: V 2.43, S 2.65, L 2.48, M 3.73, I 1.98, A 1.82, E 2.06, Y 1.92, P 2.16, T 1.9, H 2.13, C 3.03, R 2.24, Q 2, G 2.25, F 1.6, N 1.73, D 2.56
L6: P 1.57, K 2.14, S 2.98, V 2.65, C 2.39, D 2.64, T 2.34, N 1.79, M 1.79, R 2.05, E 2.71, A 1.73, I 2.23, Y 1.96, W 1.53, F 1.59, H 2.1, Q 2.47, G 2.66
M3: I 2.01, A 2.24, R 2.46, D 2.34, T 1.96, Q 1.05, C 2.94, E 2.25, W 1.99, L 2.67, S 2.27, H 2.28, K 1.96, G 2.1, P 2.84, N 2.55, V 2.32, Y 2.22, F 1.99
P4: M 2.54, L 1.7, D 2.18, G 1.62, W 1.67, T 1.98, I 1.49, F 1.75, Q 1.99, S 1.71, A 2.26, C 3.23, H 1.69, R 1.9, K 1.58, E 1.79, N 1.78, V 2.81, Y 2.15
C7: A 1.47, E 1.77, F 2.21, L 1.85, H 1.85, S 1.47, N 1.27, M 2.11, K 1.9, W 1.75, P 1.77, G 3.13, R 3.06, T 1.53, Y 1.63, Q 2.1, D 2.11, I 1.79
Q17: C 2.32, A 1.66, F 2.21, G 1.62, D 2.83
G12: R 1.69, I 1.47, K 1.59, P 1.96, N 1.67, L 2.08, T 1.87, F 1.34, Q 2.8, M 1.88, H 2.69, D 2.52, A 2, C 2.38, Y 1.53, E 2.1
V14: E 3.31, K 2.64, D 2.25, S 2.88, I 2.48, P 2.45, N 2.46, R 2.24, C 2.94, M 2.23, L 1.97, T 2.87, W 2.42, H 2.48, G 3.14, Y 2.08, Q 2.67, F 1.94, A 3.06
S11: M 2.12, N 2.55, D 2.13, H 2.16, G 3.17, I 1.71, Y 1.52, V 1.45, T 2.1, Q 1.63, W 1.28, F 1.58, A 2.53, R 1.66, K 2.28, P 1.72, E 2.42, L 2.04, C 2.5
S10: W 1.6, M 2.39, P 2.05, I 2.63, K 2.02, D 2.94, V 1.56, A 2.06, G 2.08, E 2.57, F 2.65, H 2.91, Q 2.26, C 2.73, R 1, N 2.08, L 1.57, T 1.97, Y 4.19
D9: G 2.56, P 1.42, E 3.09, K 2.43, A 2.73, H 2.38, N 1.98, S 1.82, I 1.51, Y 1.67, C 2.97, T 2.14, M 2.15, F 2.47, L 2.18, W 1.52, R 1.89
Q8: R 2.83, M 2.83, P 2.15, D 2.6, H 2.03, E 1.97, N 2.54, C 2.53, I 2.38, F 2.38, T 3.04, A 2.65, Y 1.7, L 1.77, W 2.65, V 2.73, G 2.42
C16: Q 3.99, D 3.88, N 3.1, T 2.96, F 2.16, K 3.58, G 4.1, A 3.38, P 3.31, W 2.38, Y 3.13, I 1.93, V 2.85, S 2.03, L 2.94, R 3.1, M 2.9, E 4.02, H 3.05
Y2: R 2.16, M 2.52, P 1.79, V 2.23, N 3.13, W 2.64, Q 1.78, S 2.33, G 2.87, C 2.44, E 1.66, H 2.51, D 2.4, I 3.1, T 2.3, A 1.97, F 1.86
